Reference: the supplement of paper PMC9112550, “Optimization of the antimicrobial peptide Bac7 by deep mutational scanning” (BMC Biology, 2022)

System: Escherichia coli TOP10
Assay: shrunken log2 fold change of peptide-encoding DNA abundance (4.5 h post-induction vs induction); higher = less antimicrobial activity (less host growth inhibition)
Conditions: time post-induction: 4.5 h; library: site-saturation at positions 5, 18, 19, 20
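Further: peptides expressed intracellularly from a pBAD plasmid library in pooled LB shake-flask culture, induced with 0.3% L-arabinose, DNA abundance read by NGS, three biological replicates, DESeq2 with apeglm shrinkage.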

Row | Sequence | shrunken log2 fold change
1 | RRIRIRPPRLPRPRPRPTVYPRP | -0.177
2 | RRIRIRPPRLPRPRPRPTWQPRP | 0.0597
3 | RRIRIRPPRLPRPRPRPTYRPRP | -0.0791
4 | RRIRIRPPRLPRPRPRPVAIPRP | 0.0188
5 | RRIRIRPPRLPRPRPRPVAQPRP | -0.103
6 | RRIRIRPPRLPRPRPRPVESPRP | -0.0832
7 | RRIRIRPPRLPRPRPRPVHKPRP | -0.442
8 | RRIRIRPPRLPRPRPRPVHYPRP | -0.497
9 | RRIRIRPPRLPRPRPRPVIDPRP | -0.0443
10 | RRIRIRPPRLPRPRPRPVIIPRP | -0.146
11 | RRIRIRPPRLPRPRPRPVIYPRP | -0.695
12 | RRIRIRPPRLPRPRPRPVKDPRP | -0.00153
13 | RRIRIRPPRLPRPRPRPVKNPRP | -0.765
14 | RRIRIRPPRLPRPRPRPVMQPRP | -0.00187
15 | RRIRIRPPRLPRPRPRPVNDPRP | -0.00973
16 | RRIRIRPPRLPRPRPRPVNHPRP | -0.288
17 | RRIRIRPPRLPRPRPRPVNSPRP | -0.319
18 | RRIRIRPPRLPRPRPRPVPDPRP | -0.0498
19 | RRIRIRPPRLPRPRPRPVPGPRP | -0.0459
20 | RRIRIRPPRLPRPRPRPVPHPRP | 0.0565
21 | RRIRIRPPRLPRPRPRPVPMPRP | -0.143
22 | RRIRIRPPRLPRPRPRPVPPPRP | 0.144
23 | RRIRIRPPRLPRPRPRPVQDPRP | -1.09
24 | RRIRIRPPRLPRPRPRPVQQPRP | -0.168
25 | RRIRIRPPRLPRPRPRPVQVPRP | -0.0757

Row | Sequence | shrunken log2 fold change
26 | RRIRIRPPRLPRPRPRPVTDPRP | -0.00257
27 | RRIRIRPPRLPRPRPRPVTGPRP | -0.37
28 | RRIRIRPPRLPRPRPRPVTMPRP | -1.03
29 | RRIRIRPPRLPRPRPRPVVKPRP | -0.151
30 | RRIRIRPPRLPRPRPRPVVPPRP | -0.215
31 | RRIRIRPPRLPRPRPRPVVQPRP | -1.04
32 | RRIRIRPPRLPRPRPRPVYFPRP | -0.807
33 | RRIRIRPPRLPRPRPRPVYIPRP | -0.154
34 | RRIRIRPPRLPRPRPRPWAYPRP | 0.0382
35 | RRIRIRPPRLPRPRPRPWCEPRP | -0.639
36 | RRIRIRPPRLPRPRPRPWCHPRP | -0.122
37 | RRIRIRPPRLPRPRPRPWCPPRP | 0.0944
38 | RRIRIRPPRLPRPRPRPWDAPRP | -0.00869
39 | RRIRIRPPRLPRPRPRPWGFPRP | -0.185
40 | RRIRIRPPRLPRPRPRPWGHPRP | -0.0191
41 | RRIRIRPPRLPRPRPRPWGIPRP | -0.109
42 | RRIRIRPPRLPRPRPRPWGVPRP | -0.888
43 | RRIRIRPPRLPRPRPRPWHWPRP | -0.0771
44 | RRIRIRPPRLPRPRPRPWIYPRP | -0.126
45 | RRIRIRPPRLPRPRPRPWMFPRP | -0.261
46 | RRIRIRPPRLPRPRPRPWNFPRP | -0.00674
47 | RRIRIRPPRLPRPRPRPWNPPRP | -0.106
48 | RRIRIRPPRLPRPRPRPWPCPRP | -0.0182
49 | RRIRIRPPRLPRPRPRPWPRPRP | 0.277
50 | RRIRIRPPRLPRPRPRPWQAPRP | -0.115

Row | Sequence | shrunken log2 fold change
51 | RRIRIRPPRLPRPRPRPWRHPRP | -0.083
52 | RRIRIRPPRLPRPRPRPWRLPRP | -0.0935
53 | RRIRIRPPRLPRPRPRPWRWPRP | 0.182
54 | RRIRIRPPRLPRPRPRPWSDPRP | -0.0344
55 | RRIRIRPPRLPRPRPRPWSYPRP | -0.427
56 | RRIRIRPPRLPRPRPRPWVNPRP | -0.722
57 | RRIRIRPPRLPRPRPRPWWIPRP | -0.0829
58 | RRIRIRPPRLPRPRPRPWYCPRP | -0.0341
59 | RRIRIRPPRLPRPRPRPYAAPRP | -0.563
60 | RRIRIRPPRLPRPRPRPYAEPRP | -0.844
61 | RRIRIRPPRLPRPRPRPYAQPRP | -0.121
62 | RRIRIRPPRLPRPRPRPYASPRP | -0.206
63 | RRIRIRPPRLPRPRPRPYCCPRP | -0.476
64 | RRIRIRPPRLPRPRPRPYDLPRP | -0.427
65 | RRIRIRPPRLPRPRPRPYEIPRP | -0.811
66 | RRIRIRPPRLPRPRPRPYGFPRP | -0.0889
67 | RRIRIRPPRLPRPRPRPYGHPRP | 0.0184
68 | RRIRIRPPRLPRPRPRPYHDPRP | -0.28
69 | RRIRIRPPRLPRPRPRPYHNPRP | -1.25
70 | RRIRIRPPRLPRPRPRPYHRPRP | -0.00133
71 | RRIRIRPPRLPRPRPRPYKFPRP | -0.616
72 | RRIRIRPPRLPRPRPRPYKVPRP | -0.385
73 | RRIRIRPPRLPRPRPRPYLGPRP | -0.279
74 | RRIRIRPPRLPRPRPRPYMCPRP | -0.318
75 | RRIRIRPPRLPRPRPRPYMDPRP | -0.315

Row | Sequence | shrunken log2 fold change
76 | RRIRIRPPRLPRPRPRPYMEPRP | -0.677
77 | RRIRIRPPRLPRPRPRPYMIPRP | -0.307
78 | RRIRIRPPRLPRPRPRPYPDPRP | -0.039
79 | RRIRIRPPRLPRPRPRPYPIPRP | -0.139
80 | RRIRIRPPRLPRPRPRPYPTPRP | -0.159
81 | RRIRIRPPRLPRPRPRPYPYPRP | 0.0143
82 | RRIRIRPPRLPRPRPRPYQEPRP | 0.0173
83 | RRIRIRPPRLPRPRPRPYQYPRP | -0.19
84 | RRIRIRPPRLPRPRPRPYRFPRP | -0.636
85 | RRIRIRPPRLPRPRPRPYRWPRP | 0.0522
86 | RRIRIRPPRLPRPRPRPYSNPRP | -0.385
87 | RRIRIRPPRLPRPRPRPYSTPRP | -1.85
88 | RRIRIRPPRLPRPRPRPYTFPRP | -2.16
89 | RRIRIRPPRLPRPRPRPYTQPRP | -1.02
90 | RRIRIRPPRLPRPRPRPYTRPRP | -0.353
91 | RRIRIRPPRLPRPRPRPYVVPRP | -1.54
92 | RRIRIRPPRLPRPRPRPYWGPRP | -0.151
93 | RRIRKRPPRLPRPRPRPACLPRP | 0.222
94 | RRIRKRPPRLPRPRPRPADMPRP | 0.399
95 | RRIRKRPPRLPRPRPRPAEAPRP | 0.959
96 | RRIRKRPPRLPRPRPRPAEIPRP | -0.119
97 | RRIRKRPPRLPRPRPRPAEWPRP | 0.0965
98 | RRIRKRPPRLPRPRPRPAFKPRP | -0.0132
99 | RRIRKRPPRLPRPRPRPAGCPRP | 0.702
100 | RRIRKRPPRLPRPRPRPAGRPRP | 0.432

Row | Sequence | shrunken log2 fold change
101 | RRIRKRPPRLPRPRPRPAHWPRP | 0.719
102 | RRIRKRPPRLPRPRPRPAIDPRP | 0.113
103 | RRIRKRPPRLPRPRPRPAILPRP | 0.0725
104 | RRIRKRPPRLPRPRPRPAKMPRP | 0.376
105 | RRIRKRPPRLPRPRPRPAKQPRP | 0.0123
106 | RRIRKRPPRLPRPRPRPALKPRP | 0.48
107 | RRIRKRPPRLPRPRPRPAMPPRP | 0.788
108 | RRIRKRPPRLPRPRPRPAMRPRP | 1.33
109 | RRIRKRPPRLPRPRPRPAPNPRP | 0.631
110 | RRIRKRPPRLPRPRPRPAPTPRP | 1.01
111 | RRIRKRPPRLPRPRPRPAQGPRP | 1.39
112 | RRIRKRPPRLPRPRPRPAQSPRP | 0.0619
113 | RRIRKRPPRLPRPRPRPARDPRP | 1.1
114 | RRIRKRPPRLPRPRPRPARHPRP | 1.9
115 | RRIRKRPPRLPRPRPRPARLPRP | 0.434
116 | RRIRKRPPRLPRPRPRPASDPRP | 0.981
117 | RRIRKRPPRLPRPRPRPAVLPRP | -0.025
118 | RRIRKRPPRLPRPRPRPAWCPRP | 0.0965
119 | RRIRKRPPRLPRPRPRPAYEPRP | 0.0198
120 | RRIRKRPPRLPRPRPRPCCVPRP | 0.265
121 | RRIRKRPPRLPRPRPRPCETPRP | -0.0599
122 | RRIRKRPPRLPRPRPRPCEWPRP | -0.0222
123 | RRIRKRPPRLPRPRPRPCFTPRP | 0.135
124 | RRIRKRPPRLPRPRPRPCGAPRP | 0.45
125 | RRIRKRPPRLPRPRPRPCGDPRP | 0.466

Row | Sequence | shrunken log2 fold change
126 | RRIRKRPPRLPRPRPRPCGKPRP | 0.00875
127 | RRIRKRPPRLPRPRPRPCGTPRP | -0.0177
128 | RRIRKRPPRLPRPRPRPCHCPRP | -0.241
129 | RRIRKRPPRLPRPRPRPCHPPRP | -0.336
130 | RRIRKRPPRLPRPRPRPCIEPRP | -0.00715
131 | RRIRKRPPRLPRPRPRPCKIPRP | -0.248
132 | RRIRKRPPRLPRPRPRPCLLPRP | -0.037
133 | RRIRKRPPRLPRPRPRPCMQPRP | 0.121
134 | RRIRKRPPRLPRPRPRPCPMPRP | -0.15
135 | RRIRKRPPRLPRPRPRPCPNPRP | -0.0875
136 | RRIRKRPPRLPRPRPRPCPTPRP | 0.0658
137 | RRIRKRPPRLPRPRPRPCPWPRP | 0.332
138 | RRIRKRPPRLPRPRPRPCQNPRP | 0.412
139 | RRIRKRPPRLPRPRPRPCQQPRP | -0.0287
140 | RRIRKRPPRLPRPRPRPCQVPRP | -0.00846
141 | RRIRKRPPRLPRPRPRPCQYPRP | -0.26
142 | RRIRKRPPRLPRPRPRPCRIPRP | -0.0405
143 | RRIRKRPPRLPRPRPRPCSHPRP | 0.0663
144 | RRIRKRPPRLPRPRPRPCSTPRP | 0.0274
145 | RRIRKRPPRLPRPRPRPCVGPRP | 0.334
146 | RRIRKRPPRLPRPRPRPCVSPRP | -0.376
147 | RRIRKRPPRLPRPRPRPCVWPRP | 0.205
148 | RRIRKRPPRLPRPRPRPCWAPRP | 0.114
149 | RRIRKRPPRLPRPRPRPCWRPRP | 0.183
150 | RRIRKRPPRLPRPRPRPCYDPRP | -0.0387
